Results reported in paper PMC3299731 (PLoS ONE, 2012).

Assays:
[1] = molecular target: translin (untagged, co-expressed);TRAXB2 (human;human, UniProt Q15631;Q99598 1-228;1-290, |Q115L;H117N;R118A); experiment: EMSA; 100 nM complex, 100 nM DNA; 25 mM Tris-HCl pH 8.0, 100 mM NaCl, 1 mM EDTA, 30 min; temperature not stated; 4.5% native PAGE in 0.5x TBE; details: protein: recombinant;recombinant; tags: none;N-terminal 6xHis; label: 5'-32P (unlabeled in agarose EMSA)
[2] = molecular target: T1, translin (untagged, co-expressed);TRAX (human;human, UniProt Q15631;Q99598 1-228;1-290, |); experiment: as above; details: protein: recombinant;recombinant; tags: none;N-terminal 6xHis; label: 5'-32P (unlabeled in agarose EMSA)
translinB2 (untagged, …) = molecular target: translinB2 (untagged, co-expressed);TRAXB2 (human;human, UniProt Q15631;Q99598 1-228;1-290, R86T;H88N;H90N|Q115L;H117N;R118A); experiment: as above; details: protein: recombinant;recombinant; tags: none;N-terminal 6xHis; label: 5'-32P (unlabeled in agarose EMSA)
[3] = molecular target: translinB2 (untagged, co-expressed);TRAX (human;human, UniProt Q15631;Q99598 1-228;1-290, R86T;H88N;H90N|); experiment: as above; details: protein: recombinant;recombinant; tags: none;N-terminal 6xHis; label: 5'-32P (unlabeled in agarose EMSA)
[4] = molecular target: T1, translin (untagged, co-expressed);TRAX; experiment: UV-laser crosslinking (248 nm); DNA covalently linked to TRAX subunit; 25 mM Tris-HCl pH 8.0, 100 mM NaCl, 1 mM EDTA, 30 min; temperature not stated; 4.5% native PAGE in 0.5x TBE; details: protein: recombinant;recombinant; tags: none;N-terminal 6xHis; label: 5'-32P (unlabeled in agarose EMSA)
translinB3 = translinB3 (human, UniProt Q15631 1-228, R192T;K193N;R194S;Y195N); experiment: EMSA; 100 nM octamer, 200 nM labeled DNA; 25 mM Tris-HCl pH 8.0, 100 mM NaCl, 1 mM EDTA, 30 min; temperature not stated; 4.5% native PAGE in 0.5x TBE; details: protein: recombinant; tags: N-terminal 6xHis; chain copies: 8; label: 5'-32P (unlabeled in agarose EMSA)
[5] = molecular target: translinB3 (untagged, co-expressed);TRAX (human;human, UniProt Q15631;Q99598 1-228;1-290, R192T;K193N;R194S;Y195N|); experiment: EMSA; 100 nM complex, 200 nM DNA; 25 mM Tris-HCl pH 8.0, 100 mM NaCl, 1 mM EDTA, 30 min; temperature not stated; 4.5% native PAGE in 0.5x TBE; details: protein: recombinant;recombinant; tags: none;N-terminal 6xHis; label: 5'-32P (unlabeled in agarose EMSA)
translinB3 (untagged, …) [6] = molecular target: translinB3 (untagged, co-expressed);TRAXB2 (human;human, UniProt Q15631;Q99598 1-228;1-290, R192T;K193N;R194S;Y195N|Q115L;H117N;R118A); experiment: as above; details: protein: recombinant;recombinant; tags: none;N-terminal 6xHis; label: 5'-32P (unlabeled in agarose EMSA)
translinB3 (untagged, …) [7] = molecular target: translinB3 (untagged, co-expressed);TRAXB3 (human;human, UniProt Q15631;Q99598 1-228;1-290, R192T;K193N;R194S;Y195N|K241N;K242T;Y244N); experiment: as above; details: protein: recombinant;recombinant; tags: none;N-terminal 6xHis; label: 5'-32P (unlabeled in agarose EMSA)
[8] = molecular target: T1, translin (untagged, co-expressed);TRAX; experiment: UV-laser crosslinking (248 nm); DNA covalently linked to TRAX subunit; silver stain; 25 mM Tris-HCl pH 8.0, 100 mM NaCl, 1 mM EDTA, 30 min; temperature not stated; 4.5% native PAGE in 0.5x TBE; details: protein: recombinant;recombinant; tags: none;N-terminal 6xHis

T1 sequence (Q15631 whole entry, chain 1 of 2): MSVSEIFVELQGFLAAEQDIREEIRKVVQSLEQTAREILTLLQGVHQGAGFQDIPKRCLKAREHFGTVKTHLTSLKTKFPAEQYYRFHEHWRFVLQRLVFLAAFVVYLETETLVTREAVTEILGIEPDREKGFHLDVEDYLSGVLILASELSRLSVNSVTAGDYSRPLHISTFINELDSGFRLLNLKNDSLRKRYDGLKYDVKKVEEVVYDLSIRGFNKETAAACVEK
T1 sequence (Q99598 whole entry, chain 2 of 2): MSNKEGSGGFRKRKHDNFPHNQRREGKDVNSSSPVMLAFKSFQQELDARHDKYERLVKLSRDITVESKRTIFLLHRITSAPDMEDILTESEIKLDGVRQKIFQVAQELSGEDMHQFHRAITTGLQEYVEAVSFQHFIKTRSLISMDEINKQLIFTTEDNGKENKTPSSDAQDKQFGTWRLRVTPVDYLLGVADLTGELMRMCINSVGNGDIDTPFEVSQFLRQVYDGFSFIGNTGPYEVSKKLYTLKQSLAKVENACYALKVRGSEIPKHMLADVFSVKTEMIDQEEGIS
Chain of translinB2 (untagged, co-expressed);TRAXB2 (Q15631 whole entry R86T/H88N/H90N, chain 1 of 2): as the sequence (Q15631 whole entry, chain 1 of 2) above, with R86T, H88N, H90N counted along it
Chain of translinB2 (untagged, co-expressed);TRAXB2 (Q99598 whole entry Q115L/H117N/R118A, chain 2 of 2): as the sequence (Q99598 whole entry, chain 2 of 2) above, with Q115L, H117N, R118A counted along it
Chain of translinB2 (untagged, co-expressed);TRAX (Q15631 whole entry R86T/H88N/H90N, chain 1 of 2): as the sequence (Q15631 whole entry, chain 1 of 2) above, with R86T, H88N, H90N counted along it
Chain of translinB2 (untagged, co-expressed);TRAX (Q99598 whole entry, chain 2 of 2): as the sequence (Q99598 whole entry, chain 2 of 2) above
Chain of translinB3 (Q15631 whole entry R192T/K193N/R194S/Y195N): as the sequence (Q15631 whole entry, chain 1 of 2) above, with R192T, K193N, R194S, Y195N counted along it
Chain of translinB3 (untagged, co-expressed);TRAX (Q15631 whole entry R192T/K193N/R194S/Y195N, chain 1 of 2): as the sequence (Q15631 whole entry, chain 1 of 2) above, with R192T, K193N, R194S, Y195N counted along it
Chain of translinB3 (untagged, co-expressed);TRAX (Q99598 whole entry, chain 2 of 2): as the sequence (Q99598 whole entry, chain 2 of 2) above
Chain of translinB3 (untagged, co-expressed);TRAXB3 (Q15631 whole entry R192T/K193N/R194S/Y195N, chain 1 of 2): as the sequence (Q15631 whole entry, chain 1 of 2) above, with R192T, K193N, R194S, Y195N counted along it
Chain of translinB3 (untagged, co-expressed);TRAXB3 (Q99598 whole entry K241N/K242T/Y244N, chain 2 of 2): as the sequence (Q99598 whole entry, chain 2 of 2) above, with K241N, K242T, Y244N counted along it
Chain of translinB3 (untagged, co-expressed);TRAXB2 (Q15631 whole entry R192T/K193N/R194S/Y195N, chain 1 of 2): as the sequence (Q15631 whole entry, chain 1 of 2) above, with R192T, K193N, R194S, Y195N counted along it
Chain of translinB3 (untagged, co-expressed);TRAXB2 (Q99598 whole entry Q115L/H117N/R118A, chain 2 of 2): as the sequence (Q99598 whole entry, chain 2 of 2) above, with Q115L, H117N, R118A counted along it
Chain of translin (untagged, co-expressed);TRAXB2 (Q15631 whole entry, chain 1 of 2): as the sequence (Q15631 whole entry, chain 1 of 2) above
Chain of translin (untagged, co-expressed);TRAXB2 (Q99598 whole entry Q115L/H117N/R118A, chain 2 of 2): as the sequence (Q99598 whole entry, chain 2 of 2) above, with Q115L, H117N, R118A counted along it

Row | Binder | binding result [1] | binding result [2] | binding result (translinB2 (untagged, …)) | binding result [3] | binding result [4] | binding result (translinB3) | binding result [5] | binding result (translinB3 (untagged, …) [6]) | binding result (translinB3 (untagged, …) [7]) | binding result [8]
1 | GCCCTCCTGCCCTCCTTCCGCGGG (ssDNA) [Bcl-CL1 24-mer] | binds | binds | binds | binds | binds | no binding | no binding | no binding | no binding | 
2 | CCTGTAGTAATGGCTGCATTGAACAGATGCATATCTTCCCCTG (ssDNA) [43-mer (trxB2 reverse primer)] |  |  |  |  |  |  |  |  |  | binds
